The text below walks through data of patent US20120172295A1 (INDIANA UNIVERSITY RESEARCH AND TECHNOLOGY, published 2012).

What all share (experiment): cell-based or functional assay
In test [1] the target is T1, glucagon receptor (UniProt P47871 26-477, limits assumed).
Test [2] deals with T2, GLP-1 receptor (UniProt P43220 24-463, limits assumed).
In test [3] the target is T1, glucagon receptor. This is another data set of the same source.
Test [4] deals with T2, GLP-1 receptor. This is another data set of the same source.
Test [5] addresses T2, GLP-1 receptor. This is another data set of the same source.
The target of test [6] is T1, glucagon receptor. This is another data set of the same source.
The target of test [7] is T2, GLP-1 receptor. This is another data set of the same source.
Test [8] addresses T2, GLP-1 receptor. The source holds these as a separate data set.
Test [9] addresses T2, GLP-1 receptor. The source holds these as a separate data set.
Test [10] addresses T1, glucagon receptor. The source holds these as a separate data set.
For test [11], the target named is T1, glucagon receptor. This is another data set of the same source.
Test [12] deals with T2, GLP-1 receptor. This is another data set of the same source.

Where two headings read alike, the source gives them in different places. Starred links: 1 amine or outer side, 2 acyl side, 3 side chain; linkers in the order of their positions; H or OH if unused. Positions of bridges follow the written chain, without caps; N, C: chain ends. Non-standard residues stand in square brackets, D forms with d. Groups on a side chain read outwards from the residue. Primed or numbered codes have the meaning given here. No end group written: not given here. *: point of attachment. PEG 40 kDa″ = 40 kDa polyethylene glycol; γGlu = O=C(O)[C@H](CCC(=O)[*:2])N[*:1]; Stearoyl = CCCCCCCCCCCCCCCCCC(=O)*; Palmitoyl = CCCCCCCCCCCCCCCC(=O)*; Myristoyl = CCCCCCCCCCCCCC(=O)*; Aib = CC(C)(N)C(=O)O

T1 sequence (P47871 26-477 limits assumed): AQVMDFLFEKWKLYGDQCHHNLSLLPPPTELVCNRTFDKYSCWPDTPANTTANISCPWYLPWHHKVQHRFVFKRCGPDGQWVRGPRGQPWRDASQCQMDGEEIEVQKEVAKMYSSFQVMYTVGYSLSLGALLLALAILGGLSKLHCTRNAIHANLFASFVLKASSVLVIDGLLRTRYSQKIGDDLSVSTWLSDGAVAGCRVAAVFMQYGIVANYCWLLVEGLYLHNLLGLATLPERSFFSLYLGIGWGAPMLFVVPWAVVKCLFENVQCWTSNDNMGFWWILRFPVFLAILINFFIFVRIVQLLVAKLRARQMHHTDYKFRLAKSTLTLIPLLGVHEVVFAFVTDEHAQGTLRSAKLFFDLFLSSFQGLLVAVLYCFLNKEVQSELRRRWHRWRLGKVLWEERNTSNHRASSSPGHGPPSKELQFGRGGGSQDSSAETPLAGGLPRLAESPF

Turning to HSQGTFTSDK([Trp-Stearoyl])SKYLDERRAKDFVC(PEG 40 kDa)WLMNT-NH2 [E16 K20-glucagon-NH2 with K10-W-C18 and C24-40K PEG (SEQ ID NO: 548)], the EC50 in test [1] came to 1.3 nM; in [2], 1.64 nM; in [3], 1.29 nM; in [4], 1.64 nM.
For H[Aib]QGTFTSDK(Stearoyl)SKYLDEQAAKEFIC(PEG 40 kDa″)WLMNT-NH2 [C18 acylated Glucagon analog peptide (SEQ ID NO: 537)], the concentration giving a half-maximal response (EC50) in test [5] is 0.0118 nM; in test [3] it was 8.55 nM.

B1: Peptide 78** (SEQ ID NO: 617) (peptide)
peptide: H[Aib]QGTFTSDK([γGlu-γGlu-Myristoyl])SKYLD[Aib]RRAQDFVCWLMNT-NH2
modifications: N-terminus assumed
SMILES: CCCCCCCCCCCCCC(=O)N[C@@H](CCC(=O)N[C@@H](CCC(=O)NCCCC[C@H](NC(=O)[C@H](CC(=O)O)NC(=O)[C@H](CO)NC(=O)[C@@H](NC(=O)[C@H](Cc1ccccc1)NC(=O)[C@@H](NC(=O)CNC(=O)[C@H](CCC(N)=O)NC(=O)C(C)(C)NC(=O)[C@@H](N)Cc1c[nH]cn1)[C@@H](C)O)[C@@H](C)O)C(=O)N[C@@H](CO)C(=O)N[C@@H](CCCCN)C(=O)N[C@@H](Cc1ccc(O)cc1)C(=O)N[C@@H](CC(C)C)C(=O)N[C@@H](CC(=O)O)C(=O)NC(C)(C)C(=O)N[C@@H](CCCNC(=N)N)C(=O)N[C@@H](CCCNC(=N)N)C(=O)N[C@@H](C)C(=O)N[C@@H](CCC(N)=O)C(=O)N[C@@H](CC(=O)O)C(=O)N[C@@H](Cc1ccccc1)C(=O)N[C@H](C(=O)N[C@@H](CS)C(=O)N[C@@H](Cc1c[nH]c2ccccc12)C(=O)N[C@@H](CC(C)C)C(=O)N[C@@H](CCSC)C(=O)N[C@@H](CC(N)=O)C(=O)N[C@H](C(N)=O)[C@@H](C)O)C(C)C)C(=O)O)C(=O)O
For the molecule B1, the EC50 stood at 0.009 nM in test [6] and 0.008 nM in [7].
On to HSQGTFTSDK(Stearoyl)SKYLDERRAKDFVC(PEG 40 kDa)WLMNT-NH2 [E16 K20-glucagon-NH2 with K10-C18 and C24-40K PEG (SEQ ID NO: 547)], for which the EC50 is 0.84 nM in test [1], 0.15 nM in [2], 0.84 nM in test [3] and 0.15 nM in test [4].
As for HSQGTFTSDK(Stearoyl)SKYLDERRAKDFVQWLMNT-NH2 [E16 K20-glucagon-NH2 with K10-C18], the EC50 in test [8] came to 0.03 nM; in [9] it was 0.032 nM.
Molecule HSQGTFTSDK([Trp-Palmitoyl])SKYLDERRAKDFVQWLMNT-NH2 [E16 K20-glucagon-NH2 with K10-W-C16] had a half-maximal effective concentration (EC50) in [8] of 0.05 nM.
For the molecule HSQGTFTSDK([Trp-Palmitoyl])SKYLDERRAKDFVC(PEG 40 kDa)WLMNT-NH2 [E16 K20-glucagon-NH2 with K10-W-C16 and C24-40K PEG (SEQ ID NO: 546)], the 50% effective concentration (EC50) worked out at 0.52 nM in test [1], 0.23 nM in test [2], 0.54 nM in [3] and 0.23 nM in test [4].
For the molecule HSQGTFTSDK([Glu-Palmitoyl])SKYLDERRAKDFVQWLMNT-NH2 [Peptide D (Example 22)], the EC50 came to 0.062 nM in test [10] and 0.056 nM in test [9].

B2: Peptide 77** (SEQ ID NO: 616) (peptide)
peptide: H[Aib]QGTFTSDK(Myristoyl)SKYLD[Aib]RRAQDFVCWLMNT-NH2
modifications: N-terminus assumed
SMILES: CCCCCCCCCCCCCC(=O)NCCCC[C@H](NC(=O)[C@H](CC(=O)O)NC(=O)[C@H](CO)NC(=O)[C@@H](NC(=O)[C@H](Cc1ccccc1)NC(=O)[C@@H](NC(=O)CNC(=O)[C@H](CCC(N)=O)NC(=O)C(C)(C)NC(=O)[C@@H](N)Cc1c[nH]cn1)[C@@H](C)O)[C@@H](C)O)C(=O)N[C@@H](CO)C(=O)N[C@@H](CCCCN)C(=O)N[C@@H](Cc1ccc(O)cc1)C(=O)N[C@@H](CC(C)C)C(=O)N[C@@H](CC(=O)O)C(=O)NC(C)(C)C(=O)N[C@@H](CCCNC(=N)N)C(=O)N[C@@H](CCCNC(=N)N)C(=O)N[C@@H](C)C(=O)N[C@@H](CCC(N)=O)C(=O)N[C@@H](CC(=O)O)C(=O)N[C@@H](Cc1ccccc1)C(=O)N[C@H](C(=O)N[C@@H](CS)C(=O)N[C@@H](Cc1c[nH]c2ccccc12)C(=O)N[C@@H](CC(C)C)C(=O)N[C@@H](CCSC)C(=O)N[C@@H](CC(N)=O)C(=O)N[C@H](C(N)=O)[C@@H](C)O)C(C)C
Turning to B2, the half-maximal effective concentration (EC50) in test [6] amounted to 0.144 nM; in test [7], 0.063 nM.
Take HSQGTFTSDYSKYLDEQAAKEFIAWLMNT-NH2 [E16 GLP(17-26)Glu(27-29)-NH2]: the “cAMP induction EC50” value in test [11] turned out to be 0.076 nM; in test [12], 14 pM.
The matching figures for HSQGTFTSDYSKYLDEQAAKEFIAWLVKG-NH2 [E16 GLP(17-29)-NH2]: 0.46 nM and 10 pM.

B3: Peptide 81** (SEQ ID NO: 618) (peptide)
peptide: H[Aib]QGTFTSDK([Ala-Ala-Myristoyl])SKYLD[Aib]RRAQDFVCWLMNT-NH2
modifications: N-terminus assumed
SMILES: CCCCCCCCCCCCCC(=O)N[C@@H](C)C(=O)N[C@@H](C)C(=O)NCCCC[C@H](NC(=O)[C@H](CC(=O)O)NC(=O)[C@H](CO)NC(=O)[C@@H](NC(=O)[C@H](Cc1ccccc1)NC(=O)[C@@H](NC(=O)CNC(=O)[C@H](CCC(N)=O)NC(=O)C(C)(C)NC(=O)[C@@H](N)Cc1c[nH]cn1)[C@@H](C)O)[C@@H](C)O)C(=O)N[C@@H](CO)C(=O)N[C@@H](CCCCN)C(=O)N[C@@H](Cc1ccc(O)cc1)C(=O)N[C@@H](CC(C)C)C(=O)N[C@@H](CC(=O)O)C(=O)NC(C)(C)C(=O)N[C@@H](CCCNC(=N)N)C(=O)N[C@@H](CCCNC(=N)N)C(=O)N[C@@H](C)C(=O)N[C@@H](CCC(N)=O)C(=O)N[C@@H](CC(=O)O)C(=O)N[C@@H](Cc1ccccc1)C(=O)N[C@H](C(=O)N[C@@H](CS)C(=O)N[C@@H](Cc1c[nH]c2ccccc12)C(=O)N[C@@H](CC(C)C)C(=O)N[C@@H](CCSC)C(=O)N[C@@H](CC(N)=O)C(=O)N[C@H](C(N)=O)[C@@H](C)O)C(C)C
B3 showed an EC50 in test [7] of 0.018 nM.
Turning to HSQGTFTSDYSKYLDEQAAKEFIEWLVKG-NH2 [E16 GLP(17-29)-NH2 E24, K28], the “cAMP induction EC50” value in [11] was determined as 0.23 nM; in test [12], 7 pM.

B4: E16 GLP(17-29)-NH2 E24, K28 Lactam (peptide)
peptide: HSQGTFTSDYSKYLDEQAAKEFIEWLVKG-NH2
modifications: lactam 24-28; N-terminus assumed
SMILES: CC[C@H](C)[C@H](NC(=O)[C@H](Cc1ccccc1)NC(=O)[C@H](CCC(=O)O)NC(=O)[C@H](CCCCN)NC(=O)[C@H](C)NC(=O)[C@H](C)NC(=O)[C@H](CCC(N)=O)NC(=O)[C@H](CCC(=O)O)NC(=O)[C@H](CC(=O)O)NC(=O)[C@H](CC(C)C)NC(=O)[C@H](Cc1ccc(O)cc1)NC(=O)[C@H](CCCCN)NC(=O)[C@H](CO)NC(=O)[C@H](Cc1ccc(O)cc1)NC(=O)[C@H](CC(=O)O)NC(=O)[C@H](CO)NC(=O)[C@@H](NC(=O)[C@H](Cc1ccccc1)NC(=O)[C@@H](NC(=O)CNC(=O)[C@H](CCC(N)=O)NC(=O)[C@H](CO)NC(=O)[C@@H](N)Cc1c[nH]cn1)[C@@H](C)O)[C@@H](C)O)C(=O)N[C@H]1CCC(=O)NCCCC[C@@H](C(=O)NCC(N)=O)NC(=O)[C@H](C(C)C)NC(=O)[C@H](CC(C)C)NC(=O)[C@H](Cc2c[nH]c3ccccc23)NC1=O
Consider B4, for which the “cAMP induction EC50” value came to 0.16 nM in test [11] and 7 pM in test [12].
